Data taken from patent US20090156496A1, “METHODS AND COMPOSITIONS FOR TREATING AND PREVENTING PERIPHERAL NERVE DAMAGE” (CHILDREN'S MEDICAL CENTER CORPORATION, INC., priority 2006, published 2009).

What was measured:
[1] = biological target: high-affinity oncomodulin receptor on retinal ganglion cells (RGCs) (rat); assay: AP-OM binding to lightly fixed, forskolin-treated immunopurified rat RGCs; saturation curve and Scatchard plot
[2] = biological target: high-affinity oncomodulin receptor on retinal ganglion cells (RGCs) (rat); assay: AP-OM binding to lightly fixed, forskolin-treated immunopurified rat RGCs; saturation curve
[3] = biological target: high-affinity oncomodulin receptor on retinal ganglion cells (RGCs) (rat); assay: cell-based or functional assay
[4] = biological target: high-affinity oncomodulin receptor on retinal ganglion cells (RGCs) (rat); assay: displacement of AP-OM (40 nM, equilibrium binding) from RGCs by unlabeled oncomodulin

With “alkaline phosphatase (AP)-oncomodulin fusion protein (from UniProt P02631 1-109) (ligand)” as the substance, how does the Kd [1] read?
The Kd was 28 nM.

And the concentration at which binding saturated [2]?
Its concentration at which binding saturated is greater than 100 nM.

“recombinant rat oncomodulin (from UniProt P02631 2-109) (ligand)” was tested. Which effective concentration for half-maximum response (EC50) of axon outgrowth from RGCs [3] did it give?
The effective concentration for half-maximum response (EC50) of axon outgrowth from RGCs was 3.8 nM.

What about the IC50 [4] of the same substance?
The IC50 was 30 nM.
